Data published in article PMC5988292 (2018).

B1: p115-PH (PH domain of p115RhoGEF) (domain or fragment)
chain: KLVHEGPLTWRVTKDKAVEVHVLLLDDLLLLLQRQDERLLLKSHSRTLTPTPDGKTMLRPVLRLTSAMTREVATDHKAFYVLFTWDQEAQIYELVAQTVSERKNWCALITETAG
B2: PRG-PH (non-fluorescent PH domain of PDZRhoGEF) (domain or fragment)
chain: VKQTENRHRLEGYQKRLDATALERASNPLAAEFKSLDLTTRKMIHEGPLTWRISKDKTLDLHVLLLEDLLVLLQKQDEKLLLKCHSKTAVGSSDSKQTFSPVLKLNAVLIRSVATDKRAFFIICTSKLGPPQIYELVALTSSDKNTWMELLEEAVRNATRHP
B3: PH domain from p190RhoGEF (domain or fragment)
chain: TLLYDGLVYWKTATGRFKDILALLLTDVLLFLQEKDQKYIFAAVDQKPSVISLQKLIAREVANEERGMFLISASSAGPEMYEIHTNSKEERNNWMRRIQQAVE
B4: PH domain from LARG (domain or fragment)
chain: KMIHEGPLVWKVNRDKTIDLYTLLLEDILVLLQKQDDRLVLRCHSKILASTADSKHTFSPVIKLSTVLVRQVATDNKALFVISMSDNGAQIYELVAQTVSEKTVWQDLICRMAA

The binders below were run against YFP-RhoA·GTPγS (UniProt P61586 1-193) (assay: FRET; competition with CFP-PRG-PH).
YFP-RhoA·GTPγS, sequence (P61586 whole entry): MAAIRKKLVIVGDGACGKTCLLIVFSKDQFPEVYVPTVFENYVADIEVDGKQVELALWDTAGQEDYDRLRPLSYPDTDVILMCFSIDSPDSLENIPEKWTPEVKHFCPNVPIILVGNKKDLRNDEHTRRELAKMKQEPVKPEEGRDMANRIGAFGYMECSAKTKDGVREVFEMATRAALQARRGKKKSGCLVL

Row | Binder | IC50
1 | B1 | 170 µM
2 | B2 | 3.4 µM
3 | B3 | 7.2 µM
4 | B4 | 10.5 µM
